# T1: Recombinant human Notch4 (human, UniProt Q99466 24-1447, limits assumed)
# T1 construct: also called Notch4 analyte; Notch4 (antigen)
# T1 sequence: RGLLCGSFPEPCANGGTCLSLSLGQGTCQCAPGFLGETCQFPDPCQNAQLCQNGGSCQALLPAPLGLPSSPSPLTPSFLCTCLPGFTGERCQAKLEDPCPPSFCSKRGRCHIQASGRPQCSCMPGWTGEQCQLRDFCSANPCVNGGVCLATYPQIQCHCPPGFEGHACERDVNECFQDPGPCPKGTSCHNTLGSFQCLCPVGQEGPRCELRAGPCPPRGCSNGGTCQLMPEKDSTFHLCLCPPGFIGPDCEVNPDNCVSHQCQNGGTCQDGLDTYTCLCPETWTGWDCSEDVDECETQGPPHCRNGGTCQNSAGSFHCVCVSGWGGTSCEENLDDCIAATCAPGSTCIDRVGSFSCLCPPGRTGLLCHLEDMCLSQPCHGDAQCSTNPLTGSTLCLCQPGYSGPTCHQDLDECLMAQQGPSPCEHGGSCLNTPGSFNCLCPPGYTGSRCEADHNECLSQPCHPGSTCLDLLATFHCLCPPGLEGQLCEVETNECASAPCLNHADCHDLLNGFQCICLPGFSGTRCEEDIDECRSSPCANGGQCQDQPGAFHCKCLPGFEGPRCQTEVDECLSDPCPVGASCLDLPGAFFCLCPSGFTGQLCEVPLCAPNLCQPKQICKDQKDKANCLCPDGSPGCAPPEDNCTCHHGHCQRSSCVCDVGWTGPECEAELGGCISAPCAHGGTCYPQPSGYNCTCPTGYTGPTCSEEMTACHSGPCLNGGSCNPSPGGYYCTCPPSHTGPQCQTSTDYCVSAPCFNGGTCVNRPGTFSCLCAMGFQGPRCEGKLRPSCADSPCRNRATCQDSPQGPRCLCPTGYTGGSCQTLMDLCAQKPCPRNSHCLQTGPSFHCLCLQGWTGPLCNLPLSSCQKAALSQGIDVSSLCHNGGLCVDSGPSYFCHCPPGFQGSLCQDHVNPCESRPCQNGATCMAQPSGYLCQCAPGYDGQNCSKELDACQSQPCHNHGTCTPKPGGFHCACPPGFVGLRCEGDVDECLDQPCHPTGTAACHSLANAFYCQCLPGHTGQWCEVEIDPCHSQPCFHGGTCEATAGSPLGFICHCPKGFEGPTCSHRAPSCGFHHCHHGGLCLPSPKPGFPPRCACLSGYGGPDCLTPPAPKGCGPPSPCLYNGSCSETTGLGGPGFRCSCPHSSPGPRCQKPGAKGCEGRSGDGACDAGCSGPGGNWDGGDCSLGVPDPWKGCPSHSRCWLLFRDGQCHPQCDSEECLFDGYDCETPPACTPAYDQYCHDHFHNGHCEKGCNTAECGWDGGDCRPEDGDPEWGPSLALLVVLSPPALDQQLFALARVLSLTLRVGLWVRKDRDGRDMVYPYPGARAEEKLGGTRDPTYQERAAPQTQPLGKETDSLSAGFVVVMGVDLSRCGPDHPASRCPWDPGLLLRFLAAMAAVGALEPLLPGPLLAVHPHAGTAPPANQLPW
# Target: T1, Recombinant human Notch4
# Assay: SPR, antibody captured by anti-human IgG Fc on HC30M chip, Notch4 as analyte
# Protocol: Binding kinetics measurements. Following expression and purification, clones were characterized using surface plasmon resonance (SPR) to determine binding kinetics and epitope binding activity. HC30M chips (polycarboxylate hydrogel surfaces having medium charge density and 30 nm coating thickness) were coated with anti-human Fc antibodies (unlabeled goat anti-human IgG Fc from Southern Biotech) to capture the candidate antibodies. Candidate antibodies were diluted to 10 μg/mL in HEPES-buffered saline Tris-EDTA (HBSTE)) and exposed to the surfaces for 15 minutes. After stabilizing baseline using HBSTE, Notch4 analytes were injected sequentially from a lowest concentration of 0.41 nM to a highest concentration of 300 nM. (Notch4 was diluted in HBSTE+0.5 mg/mL bovine serum albumin (BSA) to obtain a series of 3-fold dilutions.) To assess specificity, experiments were also run using Notch2 as an analyte in a single injection at 100 nM in HBSTE+0.5 mg/mL.
row,Binder,Kd [nM]
1,"iggrefmat 6-16 (antibody, V domains shown, Tested as an antibody captured by anti-human IgG Fc) VH: EVQLVESGGGLVQPGRSLRLSCAASEFSFSRFDMHWVRQAPGKGLEWVSAISSSGSYKDYADSVEGRFTISRDNAKNSLYLQMNSLRAEDTAVYYCAREAYGDYGKPFDYWGQGTLVTVSS VL: DIQMTQSPSSLSASVGDRVTITCRASQSISRNLAWYQQKPGKAPKLLIYAGSTLQRGVPSRFSGSGSGTDFTLTISSLQPEDVATYYCLQANMYPLTFGGGTKV",0.38
2,"iggrefmat 2-12 (antibody, V domains shown, Tested as an antibody captured by anti-human IgG Fc; also called E08-Lib3-Pl1) VH: EVQLVESGGGLVQPGGSLRLSCAASGFSFGTYSMSWVRQAPGKGLELVASIDTAGTPYYPDSVKGRFTISRDNAKNSLYLQMNSLRAEDTAVYYCARSYSGYDPYDAFDIWGQGTMVTVSS VL: DIVMTQSPLSLPVTPGEPASISCRSSRSLVHGSGDNYLHWYLQKPGQSPQLLIYDASNRFSGVPDRFSGSGSGTDFTLKISRVEAEDVGVYYCAQTLQIPLTFGGGTKVEIK",5.6
3,"iggrefmat 1-12 (antibody, V domains shown, Tested as an antibody captured by anti-human IgG Fc; also called C02-Lib1_Pl1) VH: QVQLVQSGAEVKKPGASVKVSCKVSGYPFSNYAIHWVRQAPGKGLEWMGGISPYTGKTIYAQKFQGRVTMTEDTSTDTAYMELSSLKSEDTAVYYCAFSRYYYDSSGYHGDAFDIWGQGTMVTVSS VL: DIQMTQSPSSVSASVGDRVTITCRASQGISNHLAWYQQKPGKAPKLLIYDASNRATGVPSRFSGSGSGTDFTLTISSLQPEDFANYYCQQSFTIPSFGGGTKVEIK",1.5
4,"iggrefmat 2-16 (antibody, V domains shown, Tested as an antibody captured by anti-human IgG Fc; also called C07-Lib3-Pl1) VH: QVQLVESGGGLVQPGGSLRLSCAASGLTFSGSAMSWVRQAPGKGLELVASITGSGTRTYYPDSVKGRFTISRDNAKNSLYLQMNSLRAEDTAVYYCARGLHAFDIWGQGTMVTVSS VL: DIVMTQSPLSLPVTPGEPASISCRSSQSLLSSYGYHNLHWYLQKPGQSPQLLIYMGYNRASGVPDRFSGSGSGTDFTLKISRVEAEDVGVYYCMQGMHLPITFGGGTKVEIK",1.5
5,"iggrefmat 1-34 (antibody, V domains shown, Tested as an antibody captured by anti-human IgG Fc) VH: QVQLVQSGAEVKKPGASVKVSCKVSGYTLTKSSIHWVRQAPGKGLEWMGGINPSAGTRIYAQKFQGRVTMTEDTSTDTAYMELSSLKSEDTAVYYCVRGSNPNVWGKGTTVTVSS VL: DIQMTQSPSSVSASVGDRVTITCRASQTIGNYLAWYQQKPGKAPKLLIYKASTLASGVPSRFSGSGSGTDFTLTISSLQPEDFANYYCQQYNFYPRTFGGGTKVEIK",1.5
6,"G04-Lib6-Pl2 (antibody, V domains shown, Tested as an antibody captured by anti-human IgG Fc) VH: EVQLVQSGAEVKKPGASVKVSCKASGYSFTKSGIHWVRQAPGQGLEWMGWINPRTGNINYAQKLQGRGTMTTDPSTSTAYMELRSLRSDDTAVYYCARTHLGSSSSPPGYYYGMDVWGQGTTVTVSS VL: ESALTQPASVSGSPGQSITISCTGTNIGAKAVSWYQQHPGKAPKLMIYAENKRPSGVSNRFSGSKSGNTASLTISGLQAEDEADYYCQAWDNRAILFGGGTKLTVL",1.6
7,"iggrefmat 3-13 (antibody, V domains shown, Tested as an antibody captured by anti-human IgG Fc; also called C11-Lib4-Pl1) VH: EVQLVQSGAEVKKPGASVKVSCKASGFPFSTSAISWVRQAPGQGLEWMGWMDPATGQTNYAQKLQGRGTMTTDPSTSTAYMELRSLRSDDTAVYYCARALRYCSGGRCQGFHGMDVWGQGTTVTVSS VL: ESALTQPASVSGSPGQSITISCTGTNIAAKSVSWYQQHPGKAPKLMIYANINRPPGVSNRFSGSKSGNTASLTISGLQAEDEADYYCSSYTSSSWMFGGGTKLTVL",2.5
8,"iggrefmat 3-4 (antibody, V domains shown, Tested as an antibody captured by anti-human IgG Fc; also called D11-Lib4-Pl1) VH: EVQLVQSGAEVKKPGASVKVSCKASGYTFSDHYISWVRQAPGQGLEWMGWMNPTSGHTNYAQKLQGRGTMTTDPSTSTAYMELRSLRSDDTAVYYCARVSGRWLPAVDGHYYYYYGMDVWGQGTTVTVSS VL: ESALTQPASVSGSPGQSITISCTGTGSNIGAGYGVSWYQQHPGKAPKLMIYANINRPPGVSNRFSGSKSGNTASLTISGLQAEDEADYYCSSYTSSSWMFGGGTKLTVL",2.6
9,"iggrefmat 6-28 (antibody, V domains shown, Tested as an antibody captured by anti-human IgG Fc; also called E03-Lib8H1N4) VH: EVQLVESGGGLVQPGRSLRLSCAASGFSFSDYHMHWVRQAPGKGLEWVGAISGSAYTTDYADSVEGRFTISRDNAKNSLYLQMNSLRAEDTAVYYCARDDYNKDGFDPWGQGTLVTVSS VL: DIQMTQSPSSLSASVGDRVTITCRASQSIYSYLAWYQQKPGKAPKLLIYDASRLQSGVPSRFSGSGSGTDFTLTISSLQPEDVATYYCQQGYRSPITFGGGTKVEIK",3.4
10,"C08-Lib3-Pl1 (antibody, V domains shown, Tested as an antibody captured by anti-human IgG Fc) VH: EVQLVESGGGLVQPGGSLRLSCAASGLPFSSYGMSWVRQAPGKGLELVASIGTSGTRTYYPDSVKGRFTISRDNAKNSLYLQMNSLRAEDTAVYYCARLGEGSGWSYFDYWGQGTLVTVSS VL: DIVMTQSPLSLPVTPGEPASISCRSSQSLLHSTGYNYLHWYLQKPGQSPQLLIYSGSYRASGVPDRFSGSGSGTDFTLKISRVEAEDVGVYYCQQGYSTPHTFGGGTKVEIK",0.41
11,"B07-Lib3-Pl1 (antibody, V domains shown, Tested as an antibody captured by anti-human IgG Fc) VH: EVQLVESGGGLVQPGGSLRLSCAASGFTLDNYVMSWVRQAPGKGLELVASISGSSADTYYPDSVKGRFTISRDNAKNSLYLQMNSLRAEDTAVYYCAKGIAAGYGMDVWGQGTTVTVSS VL: DIVMTQSPLSLPVTPGEPASISCRSSQSLLHSSGYTYLHWYLQKPGQSPQLLIYATSYRAPGVPDRFSGSGSGTDFTLKISRVEAEDVGVYYCMQATHPYTFGGGTKVEIK",5
12,"C03-Lib1-Pl1 (antibody, V domains shown, Tested as an antibody captured by anti-human IgG Fc) VH: QVQLVQSGAEVKKPGASVKVSCKVSGYTFTDLPIHWVRQAPGKGLEWMGGINPHSGDAIYAQKFQGRVTMTEDTSTDTAYMELSSLKSEDTAVYYCTTVIAVAGSNDSRPCGRSYLCVLDYWGQGTLVTVSS VL: DIQMTQSPSSVSASVGDRVTITCNASQGIGHSLAWYQQKPGKAPKLLIYGATSRATGVPSRFSGSGSGTDFTLTISSLQPEDFANYYCLQDYIYPFTFGGGTKVEIK",5.3
13,"iggrefmat 1-29 (antibody, V domains shown, Tested as an antibody captured by anti-human IgG Fc; also called C01-Lib1-Pl1) VH: QVQLVQSGAEVKKPGASVKVSCKVSRGTFSTYAIHWVRQAPGKGLEWMGGINAATGYTIYAQKFQGRVTMTEDTSTDTAYMELSSLKSEDTAVYYCVRSVGSIEYWGQGTLVTVSS VL: DIQMTQSPSSVSASVGDRVTITCRASQGISNHLAWYQQKPGKAPKLLIYGASSRQSGVPSRFSGSGSGTDFTLTISSLQPEDFANYYCLHDRYPYTFGGGTKVEIK",6.1
14,"G05-Lib3-Pl1 (antibody, V domains shown, Tested as an antibody captured by anti-human IgG Fc) VH: EVQLVESGGGLVQPGGSLRLSCAASGFTFSDYSMSWVRQAPGKGLELVASISESGHDTYYPDSVKGRFTISRDNAKNSLYLQMNSLRAEDTAVYYCARGIAVAGTRAFDIWGQGTMVTVSS VL: DIVMTQSPLSLPVTPGEPASISCRSSQSLLYSTGYNYLHWYLQKPGQSPQLLIYMGSYRASGVPDRFSGSGSGTDFTLKISRVEAEDVGVYYCMQALPTPPITFGGGTKVEIK",0.89
15,"iggrefmat 3-11 (antibody, V domains shown, Tested as an antibody captured by anti-human IgG Fc; also called H03-Lib6-Pl2) VH: EVQLVQSGAEVKKPGASVKVSCKASGYTFATYPISWVRQAPGQGLEWMGGMNPTTGDTIYAQKLQGRGTMTTDPSTSTAYMELRSLRSDDTAVYYCARGDRAWFDPWGQGTLVTVSS VL: ESALTQPASVSGSPGQSITISCTGTGSNIGAGYGVSWYQQHPGKAPKLMIYANINRPPGVSNRFSGSKSGNTASLTISGLQAEDEADYYCSSYTSSSWMFGGGTKLTVL",0.92
